Experimental findings from PMC10403316 are described below.

Several values for one entry are separate records, joined by “and”; a condition that tells them apart may be missing. Equal values may be shown once.

The target in experiment [1] is human UBR5 E3 ubiquitin ligase, full length, with an N-terminal FLAG tag (human) (UniProt O95071). Briefly: cryo-EM structure. The conditions noted are these: remark: other sources report otherwise.
For experiment [2] the target is unchanged. Put plainly: SEC. The conditions noted are these: remark: other sources report otherwise.

“human UBR5 E3 ubiquitin ligase, full length, with an N-terminal FLAG tag, O95071 1-2799”: the stoichiometry N was 2 in experiment [1]; 2 and 4 in experiment [2].
